Test results published in the DeepSol protein solubility set.

Assay: soluble on expression in E. coli; label from the status in PepcDB or PDB records

Sequence	soluble on expression in E. coli
QVQLLESGAELVKPGASVKLSCKASGYTFTSYWMHWVKQRPGRGLEWIGRIDPNSGGTKYNEKFKSKATLTVDKPSSTAYMQLSSLTSEDSAVYYCTRRDSDYWGAGTTVTVSSASTKGPSVFPLAPSSKSTSGGTAALGCLVKDYFPEPVTVSWNSGALTSGVHTFPAVLQSSGLYSLSSVVTVPSSSLGTQTYICNVNHKPSNTKVDKKVEPKSCDKT	soluble
MRGSHHHHHHGSVEVQVLIENVVFARNFVAEHGLSLLLKKGNKEIVVDTGQSENFIKNCGLMGIDVGRIKKVVLTHGHYDHIGGLKGLLERNPEVKIYTHKEILNKKYAMRKGGQFEEIGFDLSFYEKYKNNFVLIDKDAEIEEGFYVITNTDITYDNEFTTKNFFVEKEGKRIPDKFLDEVFVVVKEEDGINVVTGCSHAGILNILETARNRFGVSYIKSLIGGFHLRGMEEEKVKDIARKIEEYGVKKVLTGHCTGIDEYGFLKSVLKDKISYLTTSSSIVV	soluble
MSLRKLLKKTLFSNIIILCLYLGILKCVNSHISNEIQKQNQTFDKENLESKNTQNLQKSKNPTSQLSKTILKEEFNFLPNDVEINWKGRVLVIGDIHGDLKSLITSLFLSGVINSNLDWIAKNTLLIQLGDVVDRGSHALQIYKLFNKLKSQAPSLGSKFVGLLGNHEVMNLCGQLHYVTDEDFQTYGGRDNRTFEWSKEGFVGKYLRTMKLAIRVNDSLYVHAGLLPKYAKLGLDKLDKLSNDLLEGDFCDFYSSLFFVEDGPLWTRDISLGEEEKACKLVDETLQILGLSRMVVGHTIQHDNRINIKCDNKLILADTGFSEAIYGKPCMLEILYHNDNPDPSNYKSFHPYSINELQVKSNPSKPNIKYIQVTSLFLDKTSTRDEGHHHHHH	soluble
MKIRESTGKTSSLREVPGQEPRRVADSSGSSFKRHLKEFDHRNHEERIRALVSQIEEQGRKLSQKIDVAELKVYKRLISDFLDEVLHHSHIFSKDSHLDRRGRYKVYATVKKINEELDELTKEVLNAEKDNIRILQRIEDIRGLVLDLML	soluble
SFQGQRGWFCGSVSQDLRQFWVAEGGTISDPRAADFLFSCDASHPDTLRIYQSLDYIEDNATVFHAYYLSAVANAKIKNSVALGHFILPPACLQKEIRRKIGSFIWEQDQHFLIEKHDEVTPNEIKTLRENSELATEHKKELSKSPEKHFIRTPVVEKQMYFPLQNYPVNNMVTGYISIDAMKKFLGELHDFIPGTSGYLAYHVQNEINMSAIKNKLKRK	soluble
MHHHHHHSSGVDLGTENLYFQSMAKSAEVKLAIFGRAGVGKSALVVRFLTKRFIWEYDPTLESTYRHQATIDDEVVSMEILDTAGQEDTIQREGHMRWGEGFVLVYDITDRGSFEEVLPLKNILDEIKKPKNVTLILVGNKADLDHSRQVSTEEGEKLATELACAFYECSACTGEGNITEIFYELCREVRRRRMVQ	soluble
MDALVIRNPELLADALRGLSQSPKRMEPKWFYDAEGSALFERITELPEYYPTRTETAILTAGADRLAAHVPEGAELVELGSGASVKTRLLLDRLTGLSAYVPVDISASFLKETARALARDYPDLPIHPVVADFTKPLRLADEGHPRVGFFPGSTLGNLDPEGARALMRGVRDWPGIRGFIVGIDLIKDEDTLVRAYDDAAGVTAAFNLNLLHRMNREIGADFDPDRFAHRAIWNAEKARIEMHLESLEDQEVQIGPRRIRFRAGETIHTENSHKFSATSFAERAAEAGWRLADFLTDARRQFGVAVLEPA	not soluble
MTDHLRGFYKAEFETARKKAHGVIFLHDGKIQGGDSTFLYSGAYSQSGLTVAGNLRGVRYSSDHSRLSVFGIEPFEITFDGVAKDGYVTIEGYAHETPSLPLKAILTRVDD	not soluble
MGSDKIHHHHHHEEGTSPINENTSNLPVSATADAQLKFAKLLSQAASGSIEVRNFLKKEALVQFDNDYDIFYPLIKDKKVFGNQSFRDILLSYCKEENELSQIEQSLPLLNIMVPDLTLFWDFNATTWDTSDKEISVLCRDDKNNTLYENGENIGNMTNGDIPGFPCLVVKNNERMKITSVNTRSGEATYEFISDAFDGSKKVQTRHYDADNDLEATEDLNKYVSKDVVATAINAWREFKNVPNACQRDYIYYGINKTNTPGSLNRNIREKLYRFRISATAFGRIADADGDQRLQDLTQTKRYLSNEEILQNIWTDGNFEFRFKSYIAGETNKDAMEHLLTFSVKAKDVFSIEKIHLHHKNGTAFRQSKNFYSVDINNLRSKWIYPEKLEPNKDNQVFTLPWDLYNKALSIHMYVEEFDVDQTIEKTITVVNEFTNKADFSIEGGGSIDSVKLSAKLGYGFSHTNTTTSSTKVTTTVGSDELGTLSFFFYDPIIRAESNNTYKLYDVSSGDVTATILPINLIITR	not soluble
MGFGIGDLFWIFLLLTSLQPLWQKRQIEYRRLRALQEFQQERKSRVILLIHRQESISFLGIPISRYITIEDSEQILRAIRLTPPDVPIDLILHTPGGLVLATEQIARALIRHQAKVTVFVPHYAMSGGTMLALASDEIIMDANAVLGPVDPQLGNYPAASILKVIEDKPISEIDDQTLIMADLSRKAIGQVQRFVRTLLKDSIPKQKVLPENIESIIEALTTGRVTHDYPITIEEATEMGLPVTVGLPHSIYDLMDLYPQAQGGRPSVQYIPMPYNDPRPIL	not soluble
MAQEIELKFIVNHSAVEALRDHLNTLGGEHHDPVQLLNIYYETPDNWLRGHDMGLRIRGENGRYEMTMKVAGRVTGGLHQRPEYNVALSEPTLDLAQLPTEVWPNGELPADLASRVQPLFSTDFYREKWLVAVDGSQIEIALDQGEVKAGEFAEPICELELELLSGDTRAVLKLANQLVSQTGLRQGSLSKAARGYHLAQGNPAREIKPTTILHVAAKADVEQGLEAALELALAQWQYHEELWVRGNDAAKEQVLAAISLVRHTLMLFGGIVPRKASTHLRDLLTQCEATIASAVSAVTAVYSTETAMAKLALTEWLVSKAWQPFLDAKAQGKISDSFKRFADIHLSRHAAELKSVFCQPLGDRYRDQLPRLTRDIDSILLLAGYYDPVVAQAWLENWQGLHHAIATGQRIEIEHFRNEANNQEPFWLHSGKR	soluble
MGSDKIHHHHHHMLIPLYMRYHESLKPDPIIHDASALRLVPQIDYDFSKFDTAIRSSVGSAIRATYLDSLTKAFIQQHQQPIIVMIGCGLDARHERVGDIGKNVPFYELDLPDVIALRKQLMPPAENEILLAASAFDTDWMDELRSTYPQAQFLFVIEGVLMYFNEAQVKKLFEDLAVRFSGGEIAFDIGSTWMSRNSQKHHDVMKHMRAQFDYGCDDDHEMERWADNLHLISAKYMFDFPAWKRIGLLQAAIMWIVPFVRKSYRFLYYRIS	not soluble
MGYHTFDAGRADKLEDAQERYRSLSAEELCWALSASSDETVADLGSGTGFYTDDVAPAVDHVYAVDIQEAMHDYYRKKGVPDNVDLVTSAVDDLPFDTSSLDAAFSTMTYHEFASDGALREVARVLKPGGTFAIADWAASGSGRNGPPVDERFSAAEATDALRQHGFTVEFEAVRPETFLLVVSADLEHHHHHH	soluble
MKKRYQTLNEHYRQLFGAKMFKVPIDAGFDCPNRDGTVAHGGCTFCTVSGSGDAIVAPDAPIKEQFYKEIDFMHRKWPDVNRYLVYFQNFTNTHDTVDVIRDRYEQAINEPGVVGINIGTRPDCLPDDTIAYLAELSERMHVTVELGLQTTYEETSRLINRAHSYDLYKETVRRLRHYPNINIVSHLINGLPKETHDMMLENVRRCVTDNDIQGIKLHLLHLMTNTRMQRDYHEGRLKLLSQKDYVSIICDQLEIIPKHIVIHRITGDAPRDMLIGPMWSLNKWEVLNAIDKEMERRGSFQGCKVD	not soluble
SNAMSVIKIEKALKLDKVIFVDVRTEGEYEEDHILNAINMPLFKNNEHNEVGTIYKMQGKHEAIQKGFDYVSYKLKDIYLQAAELALNYDNIVIYCARGGMRSGSIVNLLSSLGVNVYQLEGGYKAYRNFVLEY	soluble
MMKQIPYGLTDFARIQKDNYYYVDKTMFIERIEMQPAYLFLIRPRRFGKSLTLAMLEAYYDVVYANDFDELFGHLYIGQHPTPKHNCYLIMRFNFSEVSSNVNEVERSFKLHCCSKLRDFVFKYEDLLGKEIWDVLDEEIQQDPGAFLSAINSYASRKGNLPIYLLIDEYDNFTNTILSTYGTEYYQKATHGEGFVRGFFNVIKAATTGTGSALQRMFITGVSPVTMDDVTSGFNIGTNITTDPWFNDLVGFSEAELREMLTYYKEQGVLMQTVDETIVMMKPNYDNYCFSRSRLADCMFNSDMVLYFMKSFVLHGEKPDEIVDPNIRTDFNKLAYLIRLDHGLGENFSVIKEIAEQGEITTDIATHFSALEMTDVRNFKSLLFYFGLLSIKGVDMVGRPILHVPNLVVREQLFSFLIQGYIKHDIFKIDMNRMTMLFENMAFRGDWKPLFNFIAEAIREQSRIREYIEGEAHIKGFLLAYLGMYRYYQLYPEYELNKGFADFLFKPSPSVPVMPPLTYLLEVKYAKAGASEKEIRALADGAREQLLRYSQDELVTEARAKGGLKLITIVWCSWELVLLEEVL	not soluble
MGSDKIHHHHHHVVRKINFMNLIELLKKIKRKILAQMFNLNYRPYTHTTVIFESFGGRQISDSPLAIYKELKKTHPEYRLIWVVNKGLATQAEKNGYDYVIRGSFKWVRTIEKAQVWVENARLPQWVRKPDHIKLIQTWHGTPLKKLGLDIKNVVMPGTNTERYHQNFVREANRWDVLISPNTYSTNIFRQAFGYQNKIVEIGYPRNDKLANPTKEEIKLLKQKLGIPLDKKVIMYAPTYRDNQFFQKGKYSFELPFSLKEFQERFGSNAVLLLRMHYLIANSMDISGFEDFAYDVSSYADISELYLVSDLLITDYSSVFFDYAYLKRPILFYPYDYEIYKDELRGFYLDYQKDLPGKIAYNSVDLYDEIENELKENDISNNQQFEMFYKRFCGLNAGNASKRIVEEIERNL	not soluble
GPGSMWRITRLCCKQLIRDESLVSLPPAVHRLEVYRNAVSVDCEERICAELGLLLQREGHTAFAEGSTPQQKIVKHTYLELHGAHKDFTEVKSFQRKETRRLPGLLWSPTLVSWMNEVVPRVRVFPVGVMPDTARVVEHNMTGYEMHMEHPTVGCSFLYLSLLSDTVLTFDDEATGRYGEVFLPQRALMCCSGEIRWGWRFGEQSREVHTFVNASGVRRVVEPDLRLSVQLWKFTPQLLDARLLQDRVEESMKQREAEESNEVVETIAVDRKKNEEEHKGSASSHALFSALAEKGASGTGPLGGEYVEGRTQACKGVEGKSMTMEDIGRDYNTYKQQFQNVHGVLQEMKALQDAGQPINDMWLRKRILDGQKDDNHDAQDGFDPNDVEGTWDRVDAKARFYKARLKGMDYDGTANSNSSMPDVTEDAPLDMKKTIQKIAPLVKDGDKILASLPCGQ	not soluble
MVMTVRVIAPDKTVWDAPAEEVILPSTTGQLGILSNHAPLLTALETGVMRVRQDREWVAIALMGGFAEVENNEVTILVNGAERGDTIDPQEAQQTLEIAEANLRKAEGARQKIEANLALRRARTRVEASNTISS	soluble
MEFEFIRNTLMGEYYVKCSMGHEIVGRWLQEEIGKDPTMIAQVEALIDKAFSLPSQEHTLTGTEISLMIQGDEVLVQENALSHDYDVEMESEFDFYDAESTASCGIEDFVALIEQWKDFLNI	not soluble
